The test system of data set [1] is O=[N+]([O-])c1ncc[nH]1. The data set is described as follows: nitrite release, Griess reaction, Michaelis-Menten plot. The class given is biochemical, Mycobacterium sp. JS330. Conditions: 25-400 µM 2NI, 25 °C, no metal or cofactor. An excerpt: nitrite release, Griess reaction, Michaelis-Menten plot on NnhA
Background: Griess reagent forms a coloured azo dye with nitrite.

Data set [2] concerns the molecule itself. In words: SEC; Superdex 200 prep column during purification, 20 mM Tris pH 7.5, 50 mM NaCl; molecular weight estimate assumes a globular complex.
Data set [3] deals with the molecule itself. The data set is described as follows: crystal structure; crystals in space groups P1 (6 molecules in the asymmetric unit) and H32 (one protomer, hexamer by crystallographic symmetry); grown in polyacrylic acid 5100, MgCl2, HEPES pH 7.2, or PEG 3350 with sodium malonate pH 7.0; data at 100 K.
[4] abbreviates: 1.1 µM enzyme, soluble variant from directed evolution.

Broadly, the Km is the concentration of substrate that gives half-maximal velocity. What is called kcat is the maximal rate divided by the concentration of active sites. For orientation: kcat/Km means the second-order rate constant that governs catalysis at low substrate concentration. The term stoichiometry N denotes the number of molecules, sites or subunits per partner or assembly.

“NnhA (Mycobacterium sp. JS330; C352A/G14D/K73R/T2I)”: in data set [1] (3.3 µM enzyme), the Km worked out at 24.5 ± 3.3 µM, the turnover number (kcat) worked out at 0.0122 ± 0.000333 s⁻¹ and the catalytic efficiency (kcat/Km) amounted to 500 M⁻¹ s⁻¹.

On to “NnhA (Mycobacterium sp. JS330; G14D/K73R/T2I)”, for which, in data set [1] (setting [4]), the Michaelis-Menten constant (Km) is 109.8 ± 7.6 µM, the kcat stood at 0.3 ± 0.007 s⁻¹ and the kcat/Km turned out to be 2730 M⁻¹ s⁻¹.

For the molecule NnhA (Mycobacterium sp. JS330), in data set [1] (1.1 µM enzyme), the Michaelis constant (Km) was 93.1 ± 14.1 µM, the catalytic constant (kcat) is 0.0212 ± 0.00267 s⁻¹ and the kcat/Km stood at 200 M⁻¹ s⁻¹.

B1: soluble NnhA (2-nitroimidazole nitrohydrolase A, T2I-G14D-K73R variant) (enzyme)
chain: MITVDKRPSSRGYDDWRLSDIPQYKDGISTYEFVRATHEADYRTHQAEPVAGRTFGFNGIGRLTEVALHMPTRYTLHDQSSQYKESPSFFQGLMGVPDRGPVDLAAFQRETEELATAFENNGIKVHWVDYPEEPANPYGPLMGHVFLSWGSIWRGGSVISRFGFLPGMVGVSEYLAKWAWNTLNIPPLVAITEGAMEPGACNMIADEVLVTCLSASYDQRGTDQLVAAISKTSGTEEFHNLQLRPAVEGFFNKATGACAHPDININAIDVGKLVVSPAALDWDARTWLYDNNFELIEADPDEQREFLAPCNVLLLEPGKVIAHADCHKTNQKIRDAGVEVIEVTGTEIRKACGGIKCRVMQINREPGPTLADVRNRVWR
notes: 2-nitroimidazole nitrohydrolase A (NnhA) of Mycobacterium sp; JS330, UniProt F4ZCI3.1; electron density from R11 to R379 at the C-terminus; Variant found by four rounds of directed evolution (error-prone PCR); also called NnhA-T2I-G14D-K73R; soluble T2I, G14D, K73R NnhA mutant; source: no nickel column; not shown: His6, N-terminal, kept
Regarding B1, the figures for the “stoichiometry N” value in data set [2] and in data set [3] were about 4 and 6, respectively.

B2: NnhA-T2I-G14D-K73R-C357A (enzyme)
chain: MITVDKRPSSRGYDDWRLSDIPQYKDGISTYEFVRATHEADYRTHQAEPVAGRTFGFNGIGRLTEVALHMPTRYTLHDQSSQYKESPSFFQGLMGVPDRGPVDLAAFQRETEELATAFENNGIKVHWVDYPEEPANPYGPLMGHVFLSWGSIWRGGSVISRFGFLPGMVGVSEYLAKWAWNTLNIPPLVAITEGAMEPGACNMIADEVLVTCLSASYDQRGTDQLVAAISKTSGTEEFHNLQLRPAVEGFFNKATGACAHPDININAIDVGKLVVSPAALDWDARTWLYDNNFELIEADPDEQREFLAPCNVLLLEPGKVIAHADCHKTNQKIRDAGVEVIEVTGTEIRKACGGIKARVMQINREPGPTLADVRNRVWR
notes: 2-nitroimidazole nitrohydrolase A (NnhA) of Mycobacterium sp; JS330, UniProt F4ZCI3.1; also called NnhA C357A; source: no nickel column
As for B2, the “stoichiometry N” value in data set [3] is 6.
